Measurements taken from the supplement of paper PMC12764529.
± gives the half width of the 95% confidence interval.

How the values were obtained:
[1] = folding stability dG unfold from trypsin proteolysis; higher = more stable
Summary of the method: (§1)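 K50 was inferred by Bayesian fitting of sequencing counts obtained after protease digestion of designed mini-proteins. Unfolding free energy was derived by comparison with a sequence-predicted unfolded-state K50 and a shared folded-state K50, for each protease or both combined. The mini-proteins were under 80 residues, had no cysteine, were carried in a PA-tagged cDNA display construct, and were kept only if AlphaFold2 dimer inter-PAE exceeded 15.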

[2] = folding stability dG unfold from chymotrypsin proteolysis; higher = more stable
Summary of the method: as §1

[3] = folding stability dG unfold (combined trypsin and chymotrypsin); higher = more stable
Summary of the method: as §1

Row | Sequence | folding stability dG unfold [1] [kcal/mol] | folding stability dG unfold [2] [kcal/mol] | folding stability dG unfold [3] [kcal/mol]
1 | SAGGSAGGEVEIEVTEEEEVPGLPDQEIVTKAKLPDGKTVTIKRTVDPKTGKVSVSFSVIEPPLSAGGSAGG [r6_337_JUSTAS] | 0.44 ± 0.19 | 0.355 ± 0.2 | 0.363 ± 0.24
2 | SAGGSAGGEVKIEVNKEKGYLLITVPKEEAEEIAKALKEKFGIKEVKIEVDEETDEVHILVKLESAGGSAGG [r6_661_TrROS_Hall] | 2.5 ± 0.14 | 2.98 ± 0.12 | 2.59 ± 0.27
3 | SAGGSAGGEVKTIEIEIEITDEDGRKYRIKMEAEVLPNGEIIIRMEIEDEETNETYEMTIVLKPSAGGSAGG [r6_726_TrROS_Hall] | 3.57 ± 0.19 | 4.55 ± 0.12 | 4.35 ± 0.18
4 | SAGGSAGGEYELLTFTLEFEVPPEVEHVEFEAELEDFDEILEVRARPDPETGTVRVEIVARARPSAGGSAGG [r6_712_TrMRF] | 1.46 ± 0.044 | 2.62 ± 0.06 | 2.28 ± 0.19
5 | SAGGSAGGFIEYDPKTGTITVTFPSSVSPEDVRAAIEAAGFPATPVAYSYDPSPPVRTVTFKVASAGGSAGG [r6_396_JUSTAS] | 1.14 ± 0.02 | 0.832 ± 0.11 | 1.06 ± 0.092
6 | SAGGSAGGGAAPRTRVIEVLFPVPPDVTVEEIAERLRALYPDAVLVAEAERLPDGYVRVVVTLRSAGGSAGG [r6_566_TrMRF] | 2.49 ± 0.031 | 3.54 ± 0.078 | 3.19 ± 0.083
7 | SAGGSAGGGGMMKTITIPLEELKAKLAKETGKPLTIEEIKEALKKEGIKLLSVDKEKGTITISESAGGSAGG [r6_767_JUSTAS] | 2.4 ± 0.1 | 1.73 ± 0.09 | 2.16 ± 0.13
8 | SAGGSAGGGGSSMTIVDPKDVPFGQTFTVTTYAPGGKKISTTTLTVDVPPPVWRTDGNGKWFLESAGGSAGG [r6_487_JUSTAS] | 0.163 ± 0.19 | 0.28 ± 0.27 | 0.4 ± 0.2
9 | SAGGSAGGGGVAEEVAALLKALGLKVKKIEVEVEEVPPDKKVARVKVTAELPTKKVTFELRVEVSAGGSAGG [r6_532_TrMRF] | 1.97 ± 0.092 | 3 ± 0.068 | 2.76 ± 0.28
10 | SAGGSAGGGHMPVTKTVQLPGRTVTLTYYPEKGTVKITFPEDGTEKTVPISPSETIEDVIKKLSSAGGSAGG [r6_166_JUSTAS] | 2.32 ± 0.069 | 2.74 ± 0.036 | 2.6 ± 0.061
11 | SAGGSAGGGIDLSNPEDIEEALKKSGIVGVFKVKIIPLPGGKWKKIIEPVKLLPKEELEKAGLISAGGSAGG [r6_402_TrMRF] | 0.825 ± 0.043 | 0.444 ± 0.12 | 0.637 ± 0.095
12 | SAGGSAGGGIEPGKKVKAKATLILPGGKPIPFTATFTPDYVTLDLGKGSLTVPVEFIAHLEIEDSAGGSAGG [r6_132_TrMRF] | 0.371 ± 0.052 | 1.48 ± 0.079 | 1.11 ± 0.053
13 | SAGGSAGGGKMEYDPKDGTMRWRDPANGIEHESRIEIPPIVIPADDLPKLREQFPPDMPVVLAGSAGGSAGG [r6_104_TrROS] | 0.238 ± 0.034 | 0.94 ± 0.062 | 0.722 ± 0.043
14 | SAGGSAGGGKSFSIPVDDAVILDYDPVTKRLTILLPGPGVELVLPLDKVKRIEIDPETGTIHVESAGGSAGG [r6_313_TrMRF] | 1.54 ± 0.022 | 1.61 ± 0.02 | 1.64 ± 0.073
15 | SAGGSAGGGMEPVTETITVPITTPEELEAVKKEAEARREKEGLVSYEISESPDGTVTITITKPVSAGGSAGG [r6_730_JUSTAS] | 0.155 ± 0.1 | 0.334 ± 0.071 | 0.427 ± 0.34
16 | SAGGSAGGGMPISISITVTLSDGTVLEFTVTVPENAPDPASVAAALAAEIKAAHPDVAVTFTPASAGGSAGG [r6_132_JUSTAS] | 0.849 ± 0.054 | 1.72 ± 0.025 | 1.53 ± 0.077
17 | SAGGSAGGGMVKVTLRITYYNSTGPYTSDRVFELPPDEVEALIEAIPPPPDATPEVEVEREPLGSAGGSAGG [r6_428_JUSTAS] | 0.8 ± 0.042 | 1.53 ± 0.15 | 1.22 ± 0.14
18 | SAGGSAGGGPPGTTTTTISTPDGPVTVTVSPTSVTVTRPGSNETVTSSGSPTTTLEEIAAEIAASAGGSAGG [r6_317_JUSTAS] | 2.88 ± 0.14 | 1.58 ± 0.052 | 2.24 ± 0.11
